Reference: US20090099029

T1: Bovine, dephosphorylated, Myelin Basic Protein (MBP), P02687
T1 chain: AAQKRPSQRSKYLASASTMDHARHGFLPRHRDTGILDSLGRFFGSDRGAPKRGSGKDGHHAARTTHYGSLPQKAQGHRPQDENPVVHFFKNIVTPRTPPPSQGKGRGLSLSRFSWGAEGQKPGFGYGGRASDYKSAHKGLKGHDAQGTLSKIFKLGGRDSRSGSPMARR

B1: EPHA2 (protein)
chain: HRRRKNQRARQSPEDVYFSKSEQLKPLKTYVDPHTYEDPNQAVLKFTTEIHPSCVTRQKVIGAGEFGEVYKGMLKTSSGKKEVPVAIKTLKAGYTEKQRVDFLGEAGIMGQFSHHNIIRLEGVISKYKPMMIITEYMENGALDKFLREKDGEFSVLQLVGMLRGIAAGMKYLANMNYVHRDLAARNILVNSNLVCKVSDFGLSRVLEDDPEATYTTSGGKIPIRWTAPEAISYRKFTSASDVWSFGIVMWEVMTYGERPYWELSNHEVMKAINDGFRLPTPMDCPSAIYQLMMQCWQQERARRPKFADIVSILDKLIRAPDSLKTLADFDPRVSIRLPSTSGSEGVPFRTVSEWLESIKMQQYTEHFMAAGYTAIEKVVQMTNDDIKRIGVRLPGHQKRIAYSLLGLKDQVNTVGIPI
B2: AKT3 (protein)
chain: MSDVTIVKEGWVQKRGEYIKNWRPRYFLLKTDGSFIGYKEKPQDVDLPYPLNNFSVAKCQLMKTERPKPNTFIIRCLQWTTVIERTFHVDTPEEREEWTEAIQAVADRLQRQEEERMNCSPTSQIDNIGEEEMDASTTHHKRKTMNDFDYLKLLGKGTFGKVILVREKASGKYYAMKILKKEVIIAKDEVAHTLTESRVLKNTRHPFLTSLKYSFQTKDRLCFVMEYVNGGELFFHLSRERVFSEDRTRFYGAEIVSALDYLHSGKIVYRDLKLENLMLDKDGHIKITDFGLCKEGITDAATMKTFCGTPEYLAPEVLEDNDYGRAVDWWGLGVVMYEMMCGRLPFYNQDHEKLFELILMEDIKFPRTLSSDAKSLLSGLLIKDPNKRLGGGPDDAKEIMRHSFFSGVNWQDVYDKKLVPPFKPQVTSETDTRYFDEEFTAQTITITPPEKYDEDGMDCMDNERRPHFPQFSYSASGRE
B3: AKT2 (protein)
chain: MNEVSVIKEGWLHKRGEYIKTWRPRYFLLKSDGSFIGYKERPEAPDQTLPPLNNFSVAECQLMKTERPRPNTFVIRCLQWTTVIERTFHVDSPDEREEWMRAIQMVANSLKQRAPGEDPMDYKCGSPSDSSTTEEMEVAVSKARAKVTMNDFDYLKLLGKGTFGKVILVREKATGRYYAMKILRKEVIIAKDEVAHTVTESRVLQNTRHPFLTALKYAFQTHDRLCFVMEYANGGELFFHLSRERVFTEERARFYGAEIVSALEYLHSRDVVYRDIKLENLMLDKDGHIKITDFGLCKEGISDGATMKTFCGTPEYLAPEVLEDNDYGRAVDWWGLGVVMYEMMCGRLPFYNQDHERLFELILMEEIRFPRTLSPEAKSLLAGLLKKDPKQRLGGGPSDAKEVMEHRFFLSINWQDVVQKKLLPPFKPQVTSEVDTRYFDDEFTAQSITITPPDRYDSLGLLELDQRTHFPQFSYSASIRE
B4: EPHA1 (protein)
chain: RSRRAQRQRQQRQRDRATDVDREDKLWLKPYVDLQAYEDPAQGALDFTRELDPAWLMVDTVIGEGEFGEVYRGTLRLPSQDCKTVAIKTLKDTSPGGQWWNFLREATIMGQFSHPHILHLEGVVTKRKPIMIITEFMENGALDAFLREREDQLVPGQLVAMLQGIASGMNYLSNHNYVHRDLAARNILVNQNLCCKVSDFGLTRLLDDFDGTYETQGGKIPIRWTAPEAIAHRIFTTASDVWSFGIVMWEVLSFGDKPYGEMSNQEVMKSIEDGYRLPPPVDCPAPLYELMKNCWAYDRARRPHFQKLQAHLEQLLANPHSLRTIANFDPRMTLRLPSLSGSDGIPYRTVSEWLESIRMKRYILHFHSAGLDTMECVLELTAEDLTQMGITLPGHQKRILCSIQGFKD
B5: ZAP70 (protein)
chain: MPDPAAHLPFFYGSISRAEAEEHLKLAGMADGLFLLRQCLRSLGGYVLSLVHDVRFHHFPIERQLNGTYAIAGGKAHCGPAELCEFYSRDPDGLPCNLRKPCNRPSGLEPQPGVFDCLRDAMVRDYVRQTWKLEGEALEQAIISQAPQVEKLIATTAHERMPWYHSSLTREEAERKLYSGAQTDGKFLLRPRKEQGTYALSLIYGKTVYHYLISQDKAGKYCIPEGTKFDTLWQLVEYLKLKADGLIYCLKEACPNSSASNASGAAAPTLPAHPSTLTHPQRRIDTLNSDGYTPEPARITSPDKPRPMPMDTSVYESPYSDPEELKDKKLFLKRDNLLIADIELGCGNFGSVRQGVYRMRKKQIDVAIKVLKQGTEKADTEEMMREAQIMHQLDNPYIVRLIGVCQAEALMLVMEMAGGGPLHKFLVGKREEIPVSNVAELLHQVSMGMKYLEEKNFVHRDLAARNVLLVNRHYAKISDFGLSKALGADDSYYTARSAGKWPLKWYAPECINFRKFSSRSDVWSYGVTMWEALSYGQKPYKKMKGPEVMAFIEQGKRMECPPECPPELYALMSDCWIYKWEDRPDFLTVEQRMRACYYSLASKVEGPPGSTQKAEAACA
B6: ADRBK1(GRK2) (protein)
chain: MADLEAVLADVSYLMAMEKSKATPAARASKKILLPEPSIRSVMQKYLEDRGEVTFEKIFSQKLGYLLFRDFCLNHLEEARPLVEFYEEIKKYEKLETEEERVARSREIFDSYIMKELLACSHPFSKSATEHVQGHLGKKQVPPDLFQPYIEEICQNLRGDVFQKFIESDKFTRFCQWKNVELNIHLTMNDFSVHRIIGRGGFGEVYGCRKADTGKMYAMKCLDKKRIKMKQGETLALNERIMLSLVSTGDCPFIVCMSYAFHTPDKLSFILDLMNGGDLHYHLSQHGVFSEADMRFYAAEIILGLEHMHNRFVVYRDLKPANILLDEHGHVRISDLGLACDFSKKKPHASVGTHGYMAPEVLQKGVAYDSSADWFSLGCMLFKLLRGHSPFRQHKTKDKHEIDRMTLTMAVELPDSFSPELRSLLEGLLQRDVNRRLGCLGRGAQEVKESPFFRSLDWQMVFLQKYPPPLIPPRGEVNAADAFDIGSFDEEDTKGIKLLDSDQELYRNFPLTISERWQQEVAETVFDTINAETDRLEARKKAKNKQLGHEEDYALGKDCIMHGYMSKMGNPFLTQWQRRYFYLFPNRLEWRGEGEAPQSLLTMEEIQSVEETQIKERKCLLLKIRGGKQFILQCDSDPELVQWKKELRDAYREAQQLVQRVPKMKNKPRSPVVELSKVPLVQRGSANGL
B7: STK6(AuroraA) (protein)
chain: MDRSKENCISGPVKATAPVGGPKRVLVTQQFPCQNPLPVNSGQAQRVLCPSNSSQRIPLQAQKLVSSHKPVQNQKQKQLQATSVPHPVSRPLNNTQKSKQPLPSAPENNPEEELASKQKNEESKKRQWALEDFEIGRPLGKGKFGNVYLAREKQSKFILALKVLFKAQLEKAGVEHQLRREVEIQSHLRHPNILRLYGYFHDATRVYLILEYAPLGTVYRELQKLSKFDEQRTATYITELANALSYCHSKRVIHRDIKPENLLLGSAGELKIADFGWSVHAPSSRRTTLCGTLDYLPPEMIEGRMHDEKVDLWSLGVLCYEFLVGKPPFEANTYQETYKRISRVEFTFPDFVTEGARDLISRLLKHNPSQRPMLREVLEHPWITANSSKPSNCQNKESASKQS
B8: MATK(HYL) (protein)
chain: MQGHFPAERREGRPRRGTRGQQQLLVSPRFLRAWHPPPVSARMPTRRWAPGTQCITKCEHTRPKPGELAFRKGDVVTILEACENKSWYRVKHHTSGQEGLLAAGALREREALSADPKLSLMPWFHGKISGQEAVQQLQPPEDGLFLVRESARHPGDYVLCVSFGRDVIHYRVLHRDGHLTIDEAVFFCNLMDMVEHYSKDKGAICTKLVRPKRKHGTKSAEEELARAGWLLNLQHLTLGAQIGEGEFGAVLQGEYLGQKVAVKNIKCDVTAQAFLDETAVMTKMQHENLVRLLGVILHQGLYIVMEHVSKGNLVNFLRTRGRALVNTAQLLQFSLHVAEGMEYLESKKLVHRDLAARNILVSEDLVAKVSDFGLAKAERKGLDSSRLPVKWTAPEALKHGKFTSKSDVWSFGVLLWEVFSYGRAPYPKMSLKEVSEAVEKGYRMEPPEGCPGPVHVLMSSCWEAEPARRPPFRKLAEKLARELRSAGAPASVSGQDADGSTSPRSQEP
B9: PTK2(FAK) (protein)
chain: MAAAYLDPNLNHTPNSSTKTHLGTGMERSPGAMERVLKVFHYFESNSEPTTWASIIRHGDATDVRGIIQKIVDSHKVKHVACYGFRLSHLRSEEVHWLHVDMGVSSVREKYELAHPPEEWKYELRIRYLPKGFLNQFTEDKPTLNFFYQQVKSDYMLEIADQVDQEIALKLGCLEIRRSYWEMRGNALEKKSNYEVLEKDVGLKRFFPKSLLDSVKAKTLRKLIQQTFRQFANLNREESILKFFEILSPVYRFDKECFKCALGSSWIISVELAIGPEEGISYLTDKGCNPTHLADFTQVQTIQYSNSEDKDRKGMLQLKIAGAPEPLTVTAPSLTIAENMADLIDGYCRLVNGTSQSFIIRPQKEGERALPSIPKLANSEKQGMRTHAVSVSETDDYAEIIDEEDTYTMPSTRDYEIQRERIELGRCIGEGQFGDVHQGIYMSPENPALAVAIKTCKNCTSDSVREKFLQEALTMRQFDHPHIVKLIGVITENPVWIIMELCTLGELRSFLQVRKYSLDLASLILYAYQLSTALAYLESKRFVHRDIAARNVLVSSNDCVKLGDFGLSRYMEDSTYYKASKGKLPIKWMAPESINFRRFTSASDVWMFGVCMWEILMHGVKPFQGVKNNDVIGRIENGERLPMPPNCPPTLYSLMTKCWAYDPSRRPRFTELKAQLSTILEEEKAQQEERMRMESRRQATVSWDSGGSDEAPPKPSRPGYPSPRSSEGFYPSPQHMVQTNHYQVSGYPGSHGITAMAGSIYPGQASLLDQTDSWNHRPQEIAMWQPNVEDSTVLDLRGIGQVLPTHLMEERLIRQQQEMEEDQRWLEKEERFLKPDVRLSRGSIDREDGSLQGPIGNQHIYQPVGKPDPAAPPKKPPRPGAPGHLGSLASLSSPADSYNEGVKLQPQEISPPPTANLDRSNDKVYENVTGLVKAVIEMSSKIQPAPPEEYVPMVKEVGLALRTLLATVDETIPLLPASTHREIEMAQKLLNSDLGELINKMKLAQQYVMTSLQQEYKKQMLTAAHALAVDAKNLLDVIDQARLKMLGQTRPH
B10: TEC (protein)
chain: MNFNTILEEILIKRSQQKKKTSPLNYKERLFVLTKSMLTYYEGRAEKKYRKGFIDVSKIKCVEIVKNDDGVIPCQNKYPFQVVHDANTLYIFAPSPQSRDLWVKKLKEEIKNNNNIMIKYHPKFWTDGSYQCCRQTEKLAPGCEKYNLFESSIRKALPPAPETKKRRPPPPIPLEEEDNSEEIVVAMYDFQAAEGHDLRLERGQEYLILEKNDVHWWRARDKYGNEGYIPSNYVTGKKSNNLDQYEWYCRNMNRSKAEQLLRSEDKEGGFMVRDSSQPGLYTVSLYTKFGGEGSSGFRHYHIKETTTSPKKYYLAEKHAFGSIPEIIEYHKHNAAGLVTRLRYPVSVKGKNAPTTAGFSYEKWEINPSELTFMRELGSGLFGVVRLGKWRAQYKVAIKAIREGAMCEEDFIEEAKVMMKLTHPKLVQLYGVCTQQKPIYIVTEFMERGCLLNFLRQRQGHFSRDVLLSMCQDVCEGMEYLERNSFIHRDLAARNCLVSEAGVVKVSDFGMARYVLDDQYTSSSGAKFPVKWCPPEVFNYSRFSSKSDVWSFGVLMWEVFTEGRMPFEKYTNYEVVTMVTRGHRLYQPKLASNYVYEVMLRCWQEKPEGRPSFEDLLRTIDELVECEETFGR

Biological target: T1, Bovine, dephosphorylated, Myelin Basic …

| Protein | MBP Kinase Activity |
| --- | --- |
| B1 | Weak |
| B2 | Strong |
| B3 | Strong |
| B4 | Strong |
| B5 | Negative |
| B6 | Negative |
| B7 | Weak |
| B8 | Negative |
| B9 | Negative |
| B10 | Negative |
